Reference: patent publication US10464978B2, “Peptides and combination of peptides for use in immunotherapy against ovarian cancer and other cancers” (immatics biotechnologies GmbH, priority 2015, dated 2019)

Biological target: HLA-A*02:01 (Homo sapiens, UniProt P04439, D140Y/D185E/D98H/E176V/E277Q/G131W/G231S/I119V/I121R/I166T/I218V/L300P/L318F/N151K/N90K/P208A/P217A/Q86G/Q94H/R138H/R169H/T345S)
Assay: MHC binding assay: UV-ligand exchange with beta2m ELISA (peptide exchange yield)
Settings: binding to HLA-A*02:01
How it was run: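 Values give exchange yield, measured by β2m ELISA: 100-fold-diluted monomers bound to streptavidin plates (1h, 37° C), probed with HRP anti-β2m at 2 ug/ml and read at 450 nm after TMB. Monomers came from UV-triggered cleavage of a photolabile peptide and exchange for the test peptide.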

Question: Which “Peptide exchange (MHC class I binding score, peptide exchange yield)” value (“Peptide exchange” below) does the source give for “264 (SLQEQLHSV; listed as Homo sapiens) [compound 264]” here?
Answer: “+++” (≥50 = +++)

Question: “265 (LLFGGTKTV; listed as Homo sapiens) [compound 265]” was tested. Which “Peptide exchange” value did it give?
Answer: “++” (≥20% = ++)

Question: With “266 (KITDTLIHL; listed as Homo sapiens) [compound 266]” as the substance, how does the “Peptide exchange” value read?
Answer: “+++” (≥50 = +++)

Question: How did the “Peptide exchange” value turn out when “267 (ALQDFLLSV; listed as Homo sapiens) [compound 267]” was run?
Answer: “+++” (≥50 = +++)

Question: “269 (RVLEVGALQAV; listed as Homo sapiens) [compound 269]” was tested. Which “Peptide exchange” value did it give?
Answer: “++” (≥20% = ++)

Question: “270 (LLLDEEGTFSL; listed as Homo sapiens) [compound 270]” was tested. Which “Peptide exchange” value did it give?
Answer: “++” (≥20% = ++)

Question: For “271 (LVYPLELYPA; listed as Homo sapiens) [compound 271]”, which “Peptide exchange” value is on record?
Answer: “+++” (≥50 = +++)

Question: Which “Peptide exchange” value does the source give for “272 (ALGNTVPAV; listed as Homo sapiens) [compound 272]” here?
Answer: “+++” (≥50 = +++)

Question: With “273 (NLFQSVREV; listed as Homo sapiens) [compound 273]” as the substance, how does the “Peptide exchange” value read?
Answer: “++” (≥20% = ++)

Question: With “274 (SLLFSLFEA; listed as Homo sapiens) [compound 274]” as the substance, how does the “Peptide exchange” value read?
Answer: “++” (≥20% = ++)

Question: How did the “Peptide exchange” value turn out when “275 (YLVYILNEL; listed as Homo sapiens) [compound 275]” was run?
Answer: “++” (≥20% = ++)

Question: For “276 (ALFTFSPLTV; listed as Homo sapiens) [compound 276]”, which “Peptide exchange” value is on record?
Answer: “+++” (≥50 = +++)

Question: “277 (LLPPLESLATV; listed as Homo sapiens) [compound 277]” was tested. Which “Peptide exchange” value did it give?
Answer: “++” (≥20% = ++)

Question: “278 (QLLDVVLTI; listed as Homo sapiens) [compound 278]” was tested. Which “Peptide exchange” value did it give?
Answer: “++” (≥20% = ++)

Question: Which “Peptide exchange” value does the source give for “279 (ALWGGTQPLL; listed as Homo sapiens) [compound 279]” here?
Answer: “++” (≥20% = ++)

Question: With “280 (VLPDPEVLEAV; listed as Homo sapiens) [compound 280]” as the substance, how does the “Peptide exchange” value read?
Answer: “+++” (≥50 = +++)

Question: How did the “Peptide exchange” value turn out when “281 (ILRESTEEL; listed as Homo sapiens) [compound 281]” was run?
Answer: “+++” (≥50 = +++)

Question: With “282 (LLADVVPTT; listed as Homo sapiens) [compound 282]” as the substance, how does the “Peptide exchange” value read?
Answer: “+++” (≥50 = +++)

Question: “284 (ILLSQTTGV; listed as Homo sapiens) [compound 284]” was tested. Which “Peptide exchange” value did it give?
Answer: “+++” (≥50 = +++)

Question: How did the “Peptide exchange” value turn out when “285 (QLLHVGVTV; listed as Homo sapiens) [compound 285]” was run?
Answer: “+++” (≥50 = +++)

Question: For “286 (YLFPGIPEL; listed as Homo sapiens) [compound 286]”, which “Peptide exchange” value is on record?
Answer: “+++” (≥50 = +++)

Question: How did the “Peptide exchange” value turn out when “287 (FLNEFFLNV; listed as Homo sapiens) [compound 287]” was run?
Answer: “+++” (≥50 = +++)

Question: Which “Peptide exchange” value does the source give for “288 (NLINEINGV; listed as Homo sapiens) [compound 288]” here?
Answer: “+++” (≥50 = +++)

Question: For “289 (VLLEIEDLQV; listed as Homo sapiens) [compound 289]”, which “Peptide exchange” value is on record?
Answer: “++++” (≥75% = ++++)

Question: With “295 (VLDRESPNV; listed as Homo sapiens) [compound 295]” as the substance, how does the “Peptide exchange” value read?
Answer: “+++” (≥50 = +++)

Question: Which “Peptide exchange” value does the source give for “296 (FMEGAIIYV; listed as Homo sapiens) [compound 296]” here?
Answer: “+++” (≥50 = +++)

Question: How did the “Peptide exchange” value turn out when “297 (VLADIELAQA; listed as Homo sapiens) [compound 297]” was run?
Answer: “+++” (≥50 = +++)

Question: How did the “Peptide exchange” value turn out when “298 (VMITKLVEV; listed as Homo sapiens) [compound 298]” was run?
Answer: “+++” (≥50 = +++)

Question: For “299 (YLLETSGNL; listed as Homo sapiens) [compound 299]”, which “Peptide exchange” value is on record?
Answer: “+++” (≥50 = +++)

Question: “300 (ALLGQTFSL; listed as Homo sapiens) [compound 300]” was tested. Which “Peptide exchange” value did it give?
Answer: “+++” (≥50 = +++)

Question: With “301 (FLVEDLVDSL; listed as Homo sapiens) [compound 301]” as the substance, how does the “Peptide exchange” value read?
Answer: “+++” (≥50 = +++)

Question: With “302 (ALLQEGEVYSA; listed as Homo sapiens) [compound 302]” as the substance, how does the “Peptide exchange” value read?
Answer: “+++” (≥50 = +++)

Question: “303 (AILPQLFMV; listed as Homo sapiens) [compound 303]” was tested. Which “Peptide exchange” value did it give?
Answer: “++++” (≥75% = ++++)

Question: “304 (MTLGQIYYL; listed as Homo sapiens) [compound 304]” was tested. Which “Peptide exchange” value did it give?
Answer: “+++” (≥50 = +++)

Question: “305 (SIANFSEFYV; listed as Homo sapiens) [compound 305]” was tested. Which “Peptide exchange” value did it give?
Answer: “++++” (≥75% = ++++)

Question: With “306 (ALVNVQIPL; listed as Homo sapiens) [compound 306]” as the substance, how does the “Peptide exchange” value read?
Answer: “+++” (≥50 = +++)

Question: With “307 (ALPVSLPQI; listed as Homo sapiens) [compound 307]” as the substance, how does the “Peptide exchange” value read?
Answer: “+++” (≥50 = +++)

Question: How did the “Peptide exchange” value turn out when “308 (SQYSGQLHEV; listed as Homo sapiens) [compound 308]” was run?
Answer: “+++” (≥50 = +++)

Question: For “309 (GLFDGVPTTA; listed as Homo sapiens) [compound 309]”, which “Peptide exchange” value is on record?
Answer: “+++” (≥50 = +++)

Question: How did the “Peptide exchange” value turn out when “310 (FLVDTPLARA; listed as Homo sapiens) [compound 310]” was run?
Answer: “++++” (≥75% = ++++)

Question: For “311 (RLYTGMHTV; listed as Homo sapiens) [compound 311]”, which “Peptide exchange” value is on record?
Answer: “+++” (≥50 = +++)

Question: How did the “Peptide exchange” value turn out when “312 (IISDLTIAL; listed as Homo sapiens) [compound 312]” was run?
Answer: “+++” (≥50 = +++)

Question: “313 (VLFDDELLMV; listed as Homo sapiens) [compound 313]” was tested. Which “Peptide exchange” value did it give?
Answer: “+++” (≥50 = +++)

Question: How did the “Peptide exchange” value turn out when “314 (ALIAEGIALV; listed as Homo sapiens) [compound 314]” was run?
Answer: “+++” (≥50 = +++)

Question: “315 (YLQDVVEQA; listed as Homo sapiens) [compound 315]” was tested. Which “Peptide exchange” value did it give?
Answer: “+++” (≥50 = +++)

Question: With “316 (ILLERLWYV; listed as Homo sapiens) [compound 316]” as the substance, how does the “Peptide exchange” value read?
Answer: “+++” (≥50 = +++)

Question: How did the “Peptide exchange” value turn out when “317 (SLAALVVHV; listed as Homo sapiens) [compound 317]” was run?
Answer: “+++” (≥50 = +++)

Question: Which “Peptide exchange” value does the source give for “318 (GLINTGVLSV; listed as Homo sapiens) [compound 318]” here?
Answer: “++” (≥20% = ++)

Question: Which “Peptide exchange” value does the source give for “319 (SLEPQIQPV; listed as Homo sapiens) [compound 319]” here?
Answer: “++” (≥20% = ++)

Question: Which “Peptide exchange” value does the source give for “320 (KMFEFVEPLL; listed as Homo sapiens) [compound 320]” here?
Answer: “++++” (≥75% = ++++)

Question: “321 (GLFEDVTQPGILL; listed as Homo sapiens) [compound 321]” was tested. Which “Peptide exchange” value did it give?
Answer: “++++” (≥75% = ++++)

Question: “322 (TLMTSLPAL; listed as Homo sapiens) [compound 322]” was tested. Which “Peptide exchange” value did it give?
Answer: “+++” (≥50 = +++)

Question: For “324 (FLYDEIEAEV; listed as Homo sapiens) [compound 324]”, which “Peptide exchange” value is on record?
Answer: “+++” (≥50 = +++)

Question: For “325 (FIMPATVADATAV; listed as Homo sapiens) [compound 325]”, which “Peptide exchange” value is on record?
Answer: “+++” (≥50 = +++)

Question: For “326 (FLPEALDFV; listed as Homo sapiens) [compound 326]”, which “Peptide exchange” value is on record?
Answer: “+++” (≥50 = +++)

Question: Which “Peptide exchange” value does the source give for “327 (GLAPFTEGISFV; listed as Homo sapiens) [compound 327]” here?
Answer: “+++” (≥50 = +++)

Question: How did the “Peptide exchange” value turn out when “328 (ALNDQVFEI; listed as Homo sapiens) [compound 328]” was run?
Answer: “+++” (≥50 = +++)

Question: For “329 (FLVTLNNVEV; listed as Homo sapiens) [compound 329]”, which “Peptide exchange” value is on record?
Answer: “++++” (≥75% = ++++)

Question: “330 (QLALKVEGV; listed as Homo sapiens) [compound 330]” was tested. Which “Peptide exchange” value did it give?
Answer: “+++” (≥50 = +++)

Question: With “331 (KVDTVWVNV; listed as Homo sapiens) [compound 331]” as the substance, how does the “Peptide exchange” value read?
Answer: “+++” (≥50 = +++)

Question: With “332 (YLISELEAA; listed as Homo sapiens) [compound 332]” as the substance, how does the “Peptide exchange” value read?
Answer: “+++” (≥50 = +++)

Question: How did the “Peptide exchange” value turn out when “333 (FLPDANSSV; listed as Homo sapiens) [compound 333]” was run?
Answer: “++” (≥20% = ++)

Question: For “334 (TLTKVLVAL; listed as Homo sapiens) [compound 334]”, which “Peptide exchange” value is on record?
Answer: “+++” (≥50 = +++)

Question: “335 (YSLSSVVTV; listed as Homo sapiens) [compound 335]” was tested. Which “Peptide exchange” value did it give?
Answer: “+++” (≥50 = +++)

Question: How did the “Peptide exchange” value turn out when “336 (ILLTAIVQV; listed as Homo sapiens) [compound 336]” was run?
Answer: “+++” (≥50 = +++)

Question: With “337 (HLLSELEAAPYL; listed as Homo sapiens) [compound 337]” as the substance, how does the “Peptide exchange” value read?
Answer: “++++” (≥75% = ++++)
